The labels stand for the following.
B1: SLC6A17 (parent)
chain: HMFTPKLDKMLDPQVWREAATQVF

We go through 94 variants from the supplement of paper PMC10567573.
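Further: lentivirally expressed fusions sorted by FACS into six bins by GFP to DsRed ratio, PSI derived from sequencing read proportions per bin multiplied by bin number.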

In the data set the parent is B1. Put plainly: protein stability index of a GFP-peptide fusion (GPS, HEK-293T) (PSI 1-6); higher = more stable. The note with it: c terminus: a fixed tail appended.
Take HSFTPKLDKMLDPQVWREAATQVF [M2S]: the protein stability index was determined as 2.03.

HIFTPKLDKMLDPQVWREAATQVF [M2I]: the protein stability index turned out to be 2.53.

HYFTPKLDKMLDPQVWREAATQVF [M2Y]: the protein stability index was 2.84. Regarding HPFTPKLDKMLDPQVWREAATQVF [M2P], the protein stability index was found to be 2.36. On to HWFTPKLDKMLDPQVWREAATQVF [M2W], for which the protein stability index was 1.81. The value for HDFTPKLDKMLDPQVWREAATQVF [M2D] was 2.34. Next, HNFTPKLDKMLDPQVWREAATQVF [M2N]: 2.43. The value for HCFTPKLDKMLDPQVWREAATQVF [M2C] was 2.01; that for HGFTPKLDKMLDPQVWREAATQVF [M2G] was 1.92. As to HVFTPKLDKMLDPQVWREAATQVF [M2V], the protein stability index amounted to 1.62.

For the variant HFFTPKLDKMLDPQVWREAATQVF [M2F], the protein stability index came to 1.65. Next, HEFTPKLDKMLDPQVWREAATQVF [M2E]: 2.49; HQFTPKLDKMLDPQVWREAATQVF [M2Q]: 2.52. The value for HAFTPKLDKMLDPQVWREAATQVF [M2A] was 1.9; that for HLFTPKLDKMLDPQVWREAATQVF [M2L] was 1.71.

Consider HKFTPKLDKMLDPQVWREAATQVF [M2K], for which the protein stability index turned out to be 2.13.

As to HTFTPKLDKMLDPQVWREAATQVF [M2T], the protein stability index is 2.14. HHFTPKLDKMLDPQVWREAATQVF [M2H]: the protein stability index came to 2.49. Next, HRFTPKLDKMLDPQVWREAATQVF [M2R]: 2.56. The value for HMFTEKLDKMLDPQVWREAATQVF [P5E] was 2.4; that for HMFTHKLDKMLDPQVWREAATQVF [P5H] was 1.85; that for HMFTKKLDKMLDPQVWREAATQVF [P5K] was 1.69. HMFTGKLDKMLDPQVWREAATQVF [P5G]: the protein stability index came out at 1.61. Next, HMFTLKLDKMLDPQVWREAATQVF [P5L]: 1.55; HMFTWKLDKMLDPQVWREAATQVF [P5W]: 1.3; HMFTTKLDKMLDPQVWREAATQVF [P5T]: 1.53. Next, HMFTVKLDKMLDPQVWREAATQVF [P5V]: 1.69; HMFTIKLDKMLDPQVWREAATQVF [P5I]: 3.2. The value for HMFTCKLDKMLDPQVWREAATQVF [P5C] was 1.53; that for HMFTQKLDKMLDPQVWREAATQVF [P5Q] was 2.49; that for HMFTSKLDKMLDPQVWREAATQVF [P5S] was 2.09. Take HMFTAKLDKMLDPQVWREAATQVF [P5A]: the protein stability index amounted to 2.46.

Consider HMFTYKLDKMLDPQVWREAATQVF [P5Y], for which the protein stability index was 2.08. For HMFTDKLDKMLDPQVWREAATQVF [P5D], the protein stability index turned out to be 2.61. Next, HMFTMKLDKMLDPQVWREAATQVF [P5M]: 1.03; HMFTRKLDKMLDPQVWREAATQVF [P5R]: 1.78. On to HMFTPCLDKMLDPQVWREAATQVF [K6C], for which the protein stability index worked out at 1.98. In the case of HMFTPALDKMLDPQVWREAATQVF [K6A], the protein stability index is 1.99.

In the case of HMFTPELDKMLDPQVWREAATQVF [K6E], the protein stability index came out at 1.74. Next, HMFTPDLDKMLDPQVWREAATQVF [K6D]: 2.67. The value for HMSTPKLDKMLDPQVWREAATQVF [F3S] was 2.27; that for HMKTPKLDKMLDPQVWREAATQVF [F3K] was 1.98; that for HMCTPKLDKMLDPQVWREAATQVF [F3C] was 2.25.

Take HMQTPKLDKMLDPQVWREAATQVF [F3Q]: the protein stability index was 2.17. The value for HMMTPKLDKMLDPQVWREAATQVF [F3M] was 1.81; that for HMDTPKLDKMLDPQVWREAATQVF [F3D] was 2.69.

In the case of HMITPKLDKMLDPQVWREAATQVF [F3I], the protein stability index was 2.45. The value for HMHTPKLDKMLDPQVWREAATQVF [F3H] was 2.17. Next, HMWTPKLDKMLDPQVWREAATQVF [F3W]: 2.07; HMNTPKLDKMLDPQVWREAATQVF [F3N]: 2.86; HMYTPKLDKMLDPQVWREAATQVF [F3Y]: 2.6. The value for HMRTPKLDKMLDPQVWREAATQVF [F3R] was 2.4; that for HMLTPKLDKMLDPQVWREAATQVF [F3L] was 1.99; that for HMPTPKLDKMLDPQVWREAATQVF [F3P] was 2.65.

Regarding HMTTPKLDKMLDPQVWREAATQVF [F3T], the protein stability index amounted to 2.01.

As for HMATPKLDKMLDPQVWREAATQVF [F3A], the protein stability index was 2.2. Next, HMETPKLDKMLDPQVWREAATQVF [F3E]: 3.49. Consider HMVTPKLDKMLDPQVWREAATQVF [F3V], for which the protein stability index came out at 2.7.

As for HMGTPKLDKMLDPQVWREAATQVF [F3G], the protein stability index came to 1.91. The value for AMFTPKLDKMLDPQVWREAATQVF [H1A] was 2.73. The value for VMFTPKLDKMLDPQVWREAATQVF [H1V] was 2.51; that for NMFTPKLDKMLDPQVWREAATQVF [H1N] was 1.56; that for GMFTPKLDKMLDPQVWREAATQVF [H1G] was 1.79. For EMFTPKLDKMLDPQVWREAATQVF [H1E], the protein stability index amounted to 2.17. Consider QMFTPKLDKMLDPQVWREAATQVF [H1Q], for which the protein stability index turned out to be 2.29. Next, RMFTPKLDKMLDPQVWREAATQVF [H1R]: 1.98; KMFTPKLDKMLDPQVWREAATQVF [H1K]: 1.5; FMFTPKLDKMLDPQVWREAATQVF [H1F]: 2.13.

In the case of SMFTPKLDKMLDPQVWREAATQVF [H1S], the protein stability index was 2.06. The value for CMFTPKLDKMLDPQVWREAATQVF [H1C] was 1.56. Next, TMFTPKLDKMLDPQVWREAATQVF [H1T]: 1.46; MMFTPKLDKMLDPQVWREAATQVF [H1M]: 2.74; YMFTPKLDKMLDPQVWREAATQVF [H1Y]: 1.79. Regarding PMFTPKLDKMLDPQVWREAATQVF [H1P], the protein stability index is 2.72. On to DMFTPKLDKMLDPQVWREAATQVF [H1D], for which the protein stability index came to 2.3.

Turning to LMFTPKLDKMLDPQVWREAATQVF [H1L], the protein stability index is 1.88. The value for HMFGPKLDKMLDPQVWREAATQVF [T4G] was 2.1. The value for HMFIPKLDKMLDPQVWREAATQVF [T4I] was 1.45. As to HMFPPKLDKMLDPQVWREAATQVF [T4P], the protein stability index came to 2.07. The value for HMFRPKLDKMLDPQVWREAATQVF [T4R] was 2.39; that for HMFAPKLDKMLDPQVWREAATQVF [T4A] was 2.4; that for HMFYPKLDKMLDPQVWREAATQVF [T4Y] was 2.11. The value for HMFKPKLDKMLDPQVWREAATQVF [T4K] was 1.67; that for HMFSPKLDKMLDPQVWREAATQVF [T4S] was 2.67; that for HMFNPKLDKMLDPQVWREAATQVF [T4N] was 1.39. Next, HMFQPKLDKMLDPQVWREAATQVF [T4Q]: 1.8; HMFEPKLDKMLDPQVWREAATQVF [T4E]: 2.31; HMFWPKLDKMLDPQVWREAATQVF [T4W]: 2.21. Regarding HMFMPKLDKMLDPQVWREAATQVF [T4M], the protein stability index is 2.97.

In the case of HMFFPKLDKMLDPQVWREAATQVF [T4F], the protein stability index was found to be 1.9. As for HMFCPKLDKMLDPQVWREAATQVF [T4C], the protein stability index came out at 2.49. The value for HMFLPKLDKMLDPQVWREAATQVF [T4L] was 2.69.

As for HMFDPKLDKMLDPQVWREAATQVF [T4D], the protein stability index was found to be 1.76. As for HMFHPKLDKMLDPQVWREAATQVF [T4H], the protein stability index is 1.79.
